Source: doi:10.1101/2020.04.07.029496 (bioRxiv, 2020)
One block for each molecule: values may come before it.

How the values were obtained:
[1] = molecular target: E. gossypii Tip20 (residues 1-672) (E. gossypii); test: ITC
[2] = molecular target: T1, S. cerevisiae Tip20_(I481D,L585D) (S. cerevisiae, UniProt P33891 1-701, I481D | L585D); test: ITC
T1 sequence: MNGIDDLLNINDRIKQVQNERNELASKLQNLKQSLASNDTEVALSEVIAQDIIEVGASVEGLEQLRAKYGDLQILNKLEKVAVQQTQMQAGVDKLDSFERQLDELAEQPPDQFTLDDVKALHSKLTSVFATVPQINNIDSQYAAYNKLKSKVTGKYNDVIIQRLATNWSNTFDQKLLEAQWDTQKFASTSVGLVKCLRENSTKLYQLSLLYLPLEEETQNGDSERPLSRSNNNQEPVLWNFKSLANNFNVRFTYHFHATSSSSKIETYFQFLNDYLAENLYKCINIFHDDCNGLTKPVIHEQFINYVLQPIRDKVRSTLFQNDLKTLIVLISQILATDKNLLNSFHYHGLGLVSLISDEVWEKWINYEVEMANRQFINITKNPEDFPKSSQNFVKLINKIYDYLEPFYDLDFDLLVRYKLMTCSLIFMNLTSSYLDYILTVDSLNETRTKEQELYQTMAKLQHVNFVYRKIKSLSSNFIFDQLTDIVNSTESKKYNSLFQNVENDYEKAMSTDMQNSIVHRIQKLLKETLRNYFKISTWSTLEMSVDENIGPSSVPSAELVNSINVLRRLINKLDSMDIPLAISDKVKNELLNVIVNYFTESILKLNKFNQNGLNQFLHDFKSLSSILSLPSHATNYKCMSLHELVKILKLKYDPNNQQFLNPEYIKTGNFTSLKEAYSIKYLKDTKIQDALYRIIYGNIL

Kd [1]: 100 nM
Molecule: E. gossypii MBP-Sec20NTD (domain or fragment)

fold increase in KD against wild-type Tip20 [2]: 15 fold
B1: S. cerevisiae Sec20_(1-174) (domain or fragment, UniProt P28791 1-174, looked up)
chain: MVVTFLQDLEVLQDALLNNLQKLSAISRRKESGESKHDNKDSFAAIANEHNDEEEEIEFEDLVNIIESKVSDFESVLKCSIVEMTYKYPELKLQWEKSPRYDQCDKLHIVKLDKQMNEDIYAQLVEELDFVLQFVDWFYCYRLKVKEILRQHHKRDLAWNDEKRDRAIKFHAVD
